This is an account of results in a protein production outcome set (Wang et al. 2014).

The data set is described as follows: label from the status in PepcDB records.
“MILLEGSYREMGRQYGGLMKTELLSEYAMLTKTLEDRGYSLDYLRWYASAGTQFQPERMKEITRGMAETTGLSEADLSILYYGPALYISMPAGCSYLAVWDTYTTDGSVVLSRNWDLPDLLDPFNPYYVLAVCRPTDGSNGVATFGPAGSRPETLMNSAGLFIADDNSGLAPVGQDDRPDLISEFFRLMLDYSDLDGLKTGVLTTRPDVAWIVDVGGPDGAYVFEVGLNETKVRIGDGVVAAANHFVDPSWDLTTPPGEHSLTRYANLLSQAEAAKGSIDAEEMMQIRDVLMTDDGATFRHSELFGYPYSSNHQVVFVPATRTLWMKVIDLDWQKVELAPLFAM”: the protein production entry is given as “failed”. The value for “MILLTYLIGILIGLSLTAPPGPVNSVISTESMKSKAHGVSVGAGAMTADLVFFVIVFRFGAFIPVLALHALYLAGAVLLLYISYSVLKSKISRRTRKGNYLVGLTMGITNPFQILWWMTVGLFFIRYFHIASIAGLFTGIIIWILSFPFVMNKYARRFERYVKIFSFAVLFSFAIYLLYSGVVYFLR” was “failed”; that for “MILLVPILIITLMYFMFENVPHRPGTPSGFNTACLVLLGLFPLFVMFVITAITMQRERASGTLERILTTPLRRLDLLAGYGTAFSIAAAAQATLACIVAFWFLGFDTAGSPVWVFAIAIVNAVLGVGLGLLCSAFARTEFQAVQFIPLVMVPQLLLAGIIVPRALMPTWLEWISNVMPASYALEALQQVGAHPELTGIAVRDVVVVLSFAVASLCLAAVTLRRRTS” was “failed”.

On to “MILLYLHIYEQKGSGTLNPVAFTLFGLEIRWYGILIATGVILGLFMAYSNSKLREIEYDSVLDIILISLPIGIIGARLYYVIFQFKSYNGNIIDMINIRNGGLAIHGGLIFGCLAAYIYSRYKKLSFLKLMDIAAPSIILAQALGRWGNFFNGEAHGGPVTYSFIEKFPKFIQKGMTIDGMYYNPTFLYESTWDFVTFIILMLLIRKCKNKGVVFFGYVGLYSLGRFFIEGMRTDSLMLGPIRVAQLVSILGMLISLGFITFSYVKTKRISK”, for which the protein production entry was “failed”.

Turning to “MILPWLILIPFIGGLLCWLGERFGSTLPRWIALLTMTLELALGLWLWATGNFGYAPVPGADPTWALEFHHPWITRFGIDVHLALDGLSLLMILLTGLLGVLSVLCSWKEIQRKVGFFHLNLMWILGGVVGVFLAIDLFMFFFFWEMMLVPMYFLIALWGHSSSDGKKTRIYAATKFFIFTQASGLIMLVAILGLVLVHFNQTGVITFAYADLLKTKLAPGTEYILMLGFFIAFAVKLPVVPLHSWLPDAHAQAPTAGSVDLAGILLKTAAYGLLRFALPLFPNASAEFAPIAMALGLVGIFYGAFLAFAQTDIKRLIAFSSVSHMGFVLIGIYSGSQQALQGVLIQMIAHGLSAAALFILSGQLYERLHTRDMREMGGLWSRIAYIPAISLFFAAASLGLPGTGNFVGEFLILLGSFASAPWITAIATSGLVFGSVYSLIMIHRAYFGPAKSDEVLKGMDGREMIMVLGLAVLLVVLGVFPQPFLDTSAATMHGVQQWLGTAFTQLASAR”, the protein production entry is “not failed”. Consider “MILRSWARGVTLATICMFSLSSGVILAKNNRPTPLPTYQYPDVYNNYLQPVATAIDYHSGMVYLFNYENDKLIIVDPTSLSGWPGNVPLQHTLVFPEGDKIFITSDNTEEHAAYIIILKVNDINWDAGTVSLAVETVVAADNPGTPTEFPFVEPVNNVQAIPNWLVGRGTTQIHGPTILPYSDFVYLTELTSDRIRVINRKTNEFVSGVDPIAIPGYTEQTHGINFNRSGTIGLGTGYFFDNSVIDVYKPNRETGELQTIGQIRLGDEKRHAAFTHFVYWLDERYAVTASMQFDKTSLTPTTTKKIIPPSVWLLDTLEGTATKILDHTNHANGKGIFRSPSDIAVVNGKLYIAEEDSLDYTFANDGYISVFDLTDRYKPRFLKRLKPGRELPTGYAVAHTISPTPDNRYLIVASWVSGYVLKIDTETDTVVKIWGPNDGLIKPHGIYTAGGLR”, for which the protein production entry is “failed”.

As for “MILSIDSNDANTAPLHKKTISSLSGAVESMMKKLEDVGVLVARILMPILFITAGWGKITGYAGTQQYMEAMGVPGFMLPLVILLEFGGGLAILFGFLTRTTALFTAGFTLLTAFLFHSNFAEGVNSLMFMKNLTISGGFLLLAITGPGAYSIDRLLNKKW”, the protein production result was “failed”.

In the case of “MILSNYPLRDRKDSTMGSKTKIVVIRCKELIAGIILSVIALAILALIVISLMNRNTHDTTPPSGRYTAGVYSSSVILNGNPVDIRVTVDEDNINNIEMVNISDSVTTMYPLIQNSFEEIKSSVIANGGVEGVTYSSENKYTSVMILKAIENALDKCRTY”, the protein production result was “failed”.
